# Experimental data as given in publication PMC10397247.
# T1: 4H2774-AA
# T1 chain: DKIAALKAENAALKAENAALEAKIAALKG
# T2: 4H3414-AA
# T2 chain: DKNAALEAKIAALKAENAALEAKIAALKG
# T3: 4H3073-AA
# T3 chain: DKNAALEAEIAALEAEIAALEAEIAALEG
# T4: 4H_APH
# T4 chain: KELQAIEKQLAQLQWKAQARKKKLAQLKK
# T5: 4H446-AA
# T5 chain: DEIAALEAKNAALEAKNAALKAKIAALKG
# T6: 4H688-AA
# T6 chain: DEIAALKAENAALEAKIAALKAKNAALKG
# T7: 4H3049-AA
# T7 chain: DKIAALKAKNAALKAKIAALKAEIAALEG
# T8: 4H963-AA
# T8 chain: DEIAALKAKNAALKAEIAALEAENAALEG
# T9: 4H3015-AA
# T9 chain: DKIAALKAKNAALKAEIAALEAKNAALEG
# T10: 4H3619-AA
# T10 chain: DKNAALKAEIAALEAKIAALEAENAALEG
# T11: 4H2947-AA
# T11 chain: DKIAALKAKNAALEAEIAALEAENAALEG
# T12: 4H464-AA
# T12 chain: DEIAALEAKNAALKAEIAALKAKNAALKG
# T13: 4H3782-AA
# T13 chain: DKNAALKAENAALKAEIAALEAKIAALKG
# T14: 4H452-AA
# T14 chain: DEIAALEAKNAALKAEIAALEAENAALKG
# T15: 4H324-AA
# T15 chain: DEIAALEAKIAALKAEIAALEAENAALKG
# T16: 4H3969-AA
# T16 chain: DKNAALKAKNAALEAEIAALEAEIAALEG
# T17: 4H2903-AA
# T17 chain: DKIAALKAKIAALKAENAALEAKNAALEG
# T18: 4H3381-AA
# T18 chain: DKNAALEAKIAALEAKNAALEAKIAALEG
# T19: 4H3939-AA
# T19 chain: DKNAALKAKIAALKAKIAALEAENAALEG
# T20: 4H3974-AA
# T20 chain: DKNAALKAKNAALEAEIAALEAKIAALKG
# T21: 4H3777-AA
# T21 chain: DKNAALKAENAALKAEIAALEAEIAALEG
# T22: 4H56-AA
# T22 chain: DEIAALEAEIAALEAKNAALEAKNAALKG
# T23: 4H380-AA
# T23 chain: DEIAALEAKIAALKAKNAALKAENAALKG
# T24: 4H63-AA
# T24 chain: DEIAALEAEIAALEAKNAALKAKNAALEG
# T25: 4H3094-AA
# T25 chain: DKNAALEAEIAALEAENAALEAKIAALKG
# T26: 4H3629-AA
# T26 chain: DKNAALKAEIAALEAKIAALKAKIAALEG
# T27: 4H3438-AA
# T27 chain: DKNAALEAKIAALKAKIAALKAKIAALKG
# T28: 4H3001-AA
# T28 chain: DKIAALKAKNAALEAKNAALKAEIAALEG
# T29: 4H341-AA
# T29 chain: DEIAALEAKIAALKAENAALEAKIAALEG
# T30: 4H406-AA
# T30 chain: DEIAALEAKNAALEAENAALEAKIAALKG
# T31: 4H_BCR
# T31 chain: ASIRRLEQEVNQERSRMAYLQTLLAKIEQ
# T32: 4H2961-AA
# T32 chain: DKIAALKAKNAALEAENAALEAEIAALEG
# T33: 4H432-AA
# T33 chain: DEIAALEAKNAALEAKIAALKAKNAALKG
# T34: 4H3595-AA
# T34 chain: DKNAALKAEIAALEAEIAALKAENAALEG
# T35: 4H3915-AA
# T35 chain: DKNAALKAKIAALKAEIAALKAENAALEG
# T36: 4H3493-AA
# T36 chain: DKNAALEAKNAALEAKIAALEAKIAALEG
# T37: 4H3449-AA
# T37 chain: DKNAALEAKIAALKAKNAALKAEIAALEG
# T38: 4H483-AA
# T38 chain: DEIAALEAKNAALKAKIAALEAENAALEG
# T39: 4H347-AA
# T39 chain: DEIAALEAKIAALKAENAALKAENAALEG
# T40: 4H376-AA
# T40 chain: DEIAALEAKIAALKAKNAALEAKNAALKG
# T41: 4H3129-AA
# T41 chain: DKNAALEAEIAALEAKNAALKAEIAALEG
# T42: 4H3340-AA
# T42 chain: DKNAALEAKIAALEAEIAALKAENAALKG
# T43: 4H2931-AA
# T43 chain: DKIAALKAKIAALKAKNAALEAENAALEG
# B1: 4H2774-AA (peptide)
# chain: DKIAALKAENAALKAENAALEAKIAALKG
# Assays:
# Assay in all cases: two-hybrid library CCmax;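 also: natural log of median RNA to DNA barcode read ratio; higher means stronger binding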
# 4H2774-AA = biological target: T1, 4H2774-AA
# 4H3414-AA = biological target: T2, 4H3414-AA; details: mean of both orientations
# 4H3073-AA = biological target: T3, 4H3073-AA; details: mean of both orientations
# 4H_APH = biological target: T4, 4H_APH; details: mean of both orientations
# 4H446-AA = biological target: T5, 4H446-AA; details: mean of both orientations
# 4H688-AA = biological target: T6, 4H688-AA; details: mean of both orientations
# 4H3049-AA = biological target: T7, 4H3049-AA; details: mean of both orientations
# 4H963-AA = biological target: T8, 4H963-AA; details: mean of both orientations
# 4H3015-AA = biological target: T9, 4H3015-AA; details: mean of both orientations
# 4H3619-AA = biological target: T10, 4H3619-AA; details: mean of both orientations
# 4H2947-AA = biological target: T11, 4H2947-AA; details: mean of both orientations
# 4H464-AA = biological target: T12, 4H464-AA; details: mean of both orientations
# 4H3782-AA = biological target: T13, 4H3782-AA; details: mean of both orientations
# 4H452-AA = biological target: T14, 4H452-AA; details: mean of both orientations
# 4H324-AA = biological target: T15, 4H324-AA; details: mean of both orientations
# 4H3969-AA = biological target: T16, 4H3969-AA; details: mean of both orientations
# 4H2903-AA = biological target: T17, 4H2903-AA; details: mean of both orientations
# 4H3381-AA = biological target: T18, 4H3381-AA; details: mean of both orientations
# 4H3939-AA = biological target: T19, 4H3939-AA; details: mean of both orientations
# 4H3974-AA = biological target: T20, 4H3974-AA; details: mean of both orientations
# 4H3777-AA = biological target: T21, 4H3777-AA; details: mean of both orientations
# 4H56-AA = biological target: T22, 4H56-AA; details: mean of both orientations
# 4H380-AA = biological target: T23, 4H380-AA; details: mean of both orientations
# 4H63-AA = biological target: T24, 4H63-AA; details: mean of both orientations
# 4H3094-AA = biological target: T25, 4H3094-AA; details: mean of both orientations
# 4H3629-AA = biological target: T26, 4H3629-AA; details: mean of both orientations
# 4H3438-AA = biological target: T27, 4H3438-AA; details: mean of both orientations
# 4H3001-AA = biological target: T28, 4H3001-AA; details: mean of both orientations
# 4H341-AA = biological target: T29, 4H341-AA; details: mean of both orientations
# 4H406-AA = biological target: T30, 4H406-AA; details: mean of both orientations
# 4H_BCR = biological target: T31, 4H_BCR; details: mean of both orientations
# 4H2961-AA = biological target: T32, 4H2961-AA; details: mean of both orientations
# 4H432-AA = biological target: T33, 4H432-AA; details: mean of both orientations
# 4H3595-AA = biological target: T34, 4H3595-AA; details: mean of both orientations
# 4H3915-AA = biological target: T35, 4H3915-AA; details: mean of both orientations
# 4H_GCN4 = biological target: 4H_GCN4
# 4H_GCN4, sequence (chain, as listed by the source): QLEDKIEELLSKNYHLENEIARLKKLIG
# 4H3493-AA = biological target: T36, 4H3493-AA; details: mean of both orientations
# 4H3449-AA = biological target: T37, 4H3449-AA; details: mean of both orientations
# 4H483-AA = biological target: T38, 4H483-AA; details: mean of both orientations
# 4H347-AA = biological target: T39, 4H347-AA; details: mean of both orientations
# GCN2_T = biological target: GCN2_T
# 4H376-AA = biological target: T40, 4H376-AA; details: mean of both orientations
# 4H3129-AA = biological target: T41, 4H3129-AA; details: mean of both orientations
# 4H3340-AA = biological target: T42, 4H3340-AA; details: mean of both orientations
# 4H2931-AA = biological target: T43, 4H2931-AA; details: mean of both orientations
binder,measurement,setting,value
B1,interaction score,4H2774-AA,1.65
same,interaction score,4H3414-AA,-1.5
same,interaction score,4H3073-AA,-1.43
same,interaction score,4H_APH,-1.61
same,interaction score,4H446-AA,1.28
same,interaction score,4H688-AA,-0.923
same,interaction score,4H3049-AA,1.59
same,interaction score,4H963-AA,-0.529
same,interaction score,4H3015-AA,-1.48
same,interaction score,4H3619-AA,-1.75
same,interaction score,4H2947-AA,-1.7
same,interaction score,4H464-AA,-1.18
same,interaction score,4H3782-AA,-1.14
same,interaction score,4H452-AA,-0.902
same,interaction score,4H324-AA,-1.75
same,interaction score,4H3969-AA,-1.72
same,interaction score,4H2903-AA,-1.73
same,interaction score,4H3381-AA,-1.61
same,interaction score,4H3939-AA,-1.9
same,interaction score,4H3974-AA,-0.913
same,interaction score,4H3777-AA,-0.668
same,interaction score,4H56-AA,-1.47
same,interaction score,4H380-AA,-1.68
same,interaction score,4H63-AA,-1.37
same,interaction score,4H3094-AA,-0.282
same,interaction score,4H3629-AA,-1.34
same,interaction score,4H3438-AA,-1.63
same,interaction score,4H3001-AA,0.364
same,interaction score,4H341-AA,0.103
same,interaction score,4H406-AA,-0.207
same,interaction score,4H_BCR,-0.289
same,interaction score,4H2961-AA,-0.737
same,interaction score,4H432-AA,-1.57
same,interaction score,4H3595-AA,-1.57
same,interaction score,4H3915-AA,-1.36
same,interaction score,4H_GCN4,-2.24
same,interaction score,4H3493-AA,-1.56
same,interaction score,4H3449-AA,-0.756
same,interaction score,4H483-AA,-1.21
same,interaction score,4H347-AA,-0.921
same,interaction score,GCN2_T,-1.68
same,interaction score,4H376-AA,-2.64
same,interaction score,4H3129-AA,-0.715
same,interaction score,4H3340-AA,-1.59
same,interaction score,4H2931-AA,-1.98
